Data as given in publication doi:10.1101/2021.02.22.432116 (bioRxiv, 2021).
Positions count from the first letter of the chain named. Numbers in names are those of the source. Where “and” joins values, the source holds several entries; their conditions need not be identical. Equal entries are not always repeated. Where two headings read alike, the source gives them in different places.

B1: UBQLN2 248-576 (domain or fragment, human, UniProt Q9UHD9 248-576, looked up)
chain: MRNQDLALSNLESIPGGYNALRRMYTDIQEPMLNAAQEQFGGNPFASVGSSSSSGEGTQPSRTENRDPLPNPWAPPPATQSSATTSTTTSTGSGSGNSSSNATGNTVAAANYVASIFSTPGMQSLLQQITENPQLIQNMLSAPYMRSMMQSLSQNPDLAAQMMLNSPLFTANPQLQEQMRPQLPAFLQQMQNPDTLSAMSNPRAMQALMQIQQGLQTLATEAPGLIPSFTPGVGVGVLGTAIGPVGPVTPIGPIGPIVPFTPIGPIGPIGPTGPAAPPGSTGSGGPTGPTVSSAAPSETTSPTSESGPNQQFIQQMVQALAGANAPQLP
B2: UBQLN2 UBA domain (UBQLN2 571-624) (domain or fragment, human, UniProt Q9UHD9 571-624, looked up)
chain: NAPQLPNPEVRFQQQLEQLNAMGFLNREANLQALIATGGDINAAIERLLGSQPS
B3: UBQLN2 UBL domain (UBQLN2 1-107) (domain or fragment, human, UniProt Q9UHD9 1-107, looked up)
chain: MAENGESSGPPRPSRGPAAAQGSAAAPAEPKIIKVTVKTPKEKEEFAVPENSSVQQFKEAISKRFKSQTDQLVLIFAGKILKDQDTLIQHGIHDGLTVHLVIKSQNR
B4: UBQLN2 UBL I80A (domain or fragment, human, UniProt Q9UHD9 1-107, looked up)
chain: B3 chain with I80A
B5: UBQLN2 109-576 (domain or fragment, human, UniProt Q9UHD9 109-576, looked up)
chain: QGQSTQPSNAAGTNTTSASTPRSNSTPISTNSNPFGLGSLGGLAGLSSLGLSSTNFSELQSQMQQQLMASPEMMIQIMENPFVQSMLSNPDLMRQLIMANPQMQQLIQRNPEISHLLNNPDIMRQTLEIARNPAMMQEMMRNQDLALSNLESIPGGYNALRRMYTDIQEPMLNAAQEQFGGNPFASVGSSSSSGEGTQPSRTENRDPLPNPWAPPPATQSSATTSTTTSTGSGSGNSSSNATGNTVAAANYVASIFSTPGMQSLLQQITENPQLIQNMLSAPYMRSMMQSLSQNPDLAAQMMLNSPLFTANPQLQEQMRPQLPAFLQQMQNPDTLSAMSNPRAMQALMQIQQGLQTLATEAPGLIPSFTPGVGVGVLGTAIGPVGPVTPIGPIGPIVPFTPIGPIGPIGPTGPAAPPGSTGSGGPTGPTVSSAAPSETTSPTSESGPNQQFIQQMVQALAGANAPQLP

How the values were obtained:
Assay in all cases: NMR titration
[1] = target: B3
[2] = target: B3; remark: listed apart in the source
UBQLN2 109-576 [3] = target: B5
UBQLN2 178-576 = UBQLN2 178-576 (human, UniProt Q9UHD9 178-576)
UBQLN2 379-576 = UBQLN2 379-576 (human, UniProt Q9UHD9 379-576)
UBQLN2 248-576 = target: B1
UBQLN2 109-576 [4] = target: B5; remark: listed apart in the source
[5] = target: B2

Binder: B1
UBL peak intensity relative to isolated UBL [1]: 70%

Binder: B2
Kd [2]: 178 µM and 210 µM

Binder: B3
binding result (UBQLN2 109-576 [3]): binds
binding result (UBQLN2 178-576): binds
binding result (UBQLN2 379-576): binds
binding result (UBQLN2 248-576): binds

Binder: B4
binding result (UBQLN2 109-576 [4]): binds

Binder: B5
UBA peak intensity relative to isolated UBA [5]: 60%
